In patent US20040202655A1 (published 2004):
Several values for one entry are separate records, joined by “and”; a condition that tells them apart may be missing. Identical values can stand only once.

Key:
[1] = target: T1, human IGF-I receptor on cells (NIH-3T3 fibroblasts expressing the human IGF-IR; DU145 cells) (human, UniProt P08069 31-1367); experiment: competition with 125I-IGF-II, NIH-3T3 cells expressing human IGF-1R, 4 C
T1 construct: whole, on cells; Mature receptor is an alpha2-beta2 tetramer cut from one precursor; also called IGF-1R; hu-IGF-1R
Procedure: (§1) NIH-3T3 fibroblasts expressing the human IGF-IR, or NIH-3T3 non-transfected fibroblasts were plated at 6×10⁴ cells per well in 0.5 ml of DMEM (Gibco, #11960-044) supplemented with 10% heat-inactivated fetal bovine serum (Gibco, #16140-071), 2 mM L-glutamine (Gibco, #25030-081) and 50 U/ml penicillin-streptomycin (Gibco, #15070-063). The NIH-3T3 cells were used as a control for non-specific cell binding. The plates were incubated at 37° C./5% CO₂ for 24 hours to allow cells to attach and become 80-90% confluent. The overlying media was then replaced with 0.5 ml per well of starvation media consisting of DMEM, 20 mM Hepes (Gibco, #15630-080), 2 mM L-glutamine and 0.1% bovine serum albumin (Equitech-Bio, protease-free, Kerrville, Tex.) and the plates were incubated at 37° C., 5% CO₂ overnight. All subsequent binding steps were conducted at 4° C. Test antibodies were diluted in ice-cold starvation media to the desired final concentration and 100 μl added per well. All samples were performed in duplicate. […] Cell monolayers were washed three times with ice-cold PBS (Gibco, #14040-117) and cells and associated radioactivity were released by adding 0.5ml 2% sodium dodecyl sulfate/0.2N NaOH to each well and heating the plates at 60° C. for 15 minutes. Lysate associated radioactivity was quantitated by gamma scintillation spectrometry. Alternatively, the same described experiment was performed with preincubation with the test antibodies at 37° C. for 10 minutes, followed by 10 minutes incubation at 37° C. after addition of 400 pM of the iodinated radioligand.

[2] = target: T1, human IGF-I receptor on cells (NIH-3T3 …); experiment: competition with 125I-IGF-I, NIH-3T3 cells expressing human IGF-1R, 37 C
Procedure: as §1, with “Alternatively, the same described experiment was performed with preincubation with the test antibodies at 37° C. for 10 minutes, followed by 10 minutes incubation at 37° C. after addition of 400 pM of the iodinated radioligand.” left out

[3] = target: T1, human IGF-I receptor on cells (NIH-3T3 …); experiment: competition with 125I-IGF-I, NIH-3T3 cells expressing human IGF-1R, 4 C
Procedure: as §1

[4] = target: T1, human IGF-I receptor on cells (NIH-3T3 …); experiment: cell-based or functional assay
[5] = target: T1, human IGF-I receptor on cells (NIH-3T3 …); experiment: saturation binding of 125I-labelled IgG to NIH-3T3 cells expressing human IGF-1R, on ice; unit inferred
Procedure: The mixtures were in incubated on ice for 70 min. After the incubation the tubes were centrifuged at 1000 rpm for 1 min and the supernatant fractions were removed by aspiration. The cell pellets were washed with 50 μl of ice-cold Hanks' Balanced Salt Solution containing 0.2% BSA and 20 mM Hepes and centrifuged at 1000 rpm for […] and the supernatant fractions were removed by aspiration. The resulting cell pellets were counted in Perkin Elmer Cobra Quantum gamma counter. […] The specific binding was obtained by subtracting the non-specific binding counts from the total binding counts in corresponding pairs.

[6] = target: T1, human IGF-I receptor on cells (NIH-3T3 …); experiment: cell-based or functional assay; remark: listed apart in the source
[7] = target: T1, human IGF-I receptor on cells (NIH-3T3 …); experiment: competition with 125I-IGF-II, NIH-3T3 cells expressing human IGF-1R, 37 C

IC50 [1]: > 75 nM
IC50 [2]: 1.9 nM
IC50 [3]: > 100 nM
Antagonist Assay IC50 (nM), IGF-I-induced IGF-1R tyrosine phosphorylation (ELISA) [4]: 2.4 nM and 3.3 nM
Kd [5]: 2.24 nM
IC50 (nM), IGF-1 dependent proliferation of NIH-3T3/hIGF-1R cells (BrdU ELISA) [6]: 3.4 nM and 2.6 nM
IC50 [7]: 3 nM and 2.6 nM
B1: PINT-11A4 IgG (antibody, V domains shown)
VH: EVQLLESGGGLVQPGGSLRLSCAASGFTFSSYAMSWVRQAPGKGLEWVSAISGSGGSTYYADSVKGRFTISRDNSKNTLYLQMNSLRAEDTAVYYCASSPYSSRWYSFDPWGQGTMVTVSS
VL: LSYELTQPPSVSVSPGQTATITCSGDDLGNKYVSWYQQKPGQSPVLVIYQDTKRPSGIPERFSGSNSGNIATLTISGTQAVDEADYYCQVWDTGTVVFGGGTKLTVLG
